The subject of one data set is tRNA^Pyl. Description: Aminoacylation assay of chPylRS variants (32P-labeled tRNA, nuclease P1/TLC). It is filed as biochemical. The protocol: (§1) The genes of chPylRS variants and MjTyrRS variants were cloned into pET15a and transformed into BL21(DE3) (New England Biolabs) cells for expression. Cells were grown in 500 mL of LB media supplemented with 100 m/mL ampicillin at 37° C. to an A600 of 0.6-0.8, and protein expression was induced by addition of 0.5 mM IPTG (chPylRS variants) or 1 mM IPTG (MjTyrRS variants). Cells were incubated at 30° C. for an additional 6 h (chPylRS variants) or 4 h (MjTyrRS variants) and harvested by centrifugation at 5,000 g for 10 min at 4° C. The cell pellet was resuspended in 15 mL of lysis buffer (50 mM Tris (pH 7.5), 300 mM NaCl, 20 mM imidazole), and cells were lysed by sonication. The crude extract was centrifuged at 20,000 g for 30 min at 4° C. The soluble fraction was loaded onto a column containing 2 mL of Ni-NTA resin (Qiagen) previously equilibrated with 20 mL of lysis buffer. The column was washed with 20 mL of lysis buffer. The bound protein was then eluted with 2 mL of 50 mM Tris (pH 7.5), 300 mM NaCl, 300 mM imidazole. The purified protein was dialyzed with 50 mM HEPES-KOH (pH 7.5), 50 mM KCl, 1 mM DTT and 50% glycerol and stored at −80° C. for further studies.
(§2) Template plasmid containing the tRNA^Pyl or tRNACUA^Tyr/Opt gene was purified with the plasmid maxi kit (Qiagen). The plasmid containing tRNA^Pyl (100 μg) was digested with BstNI (New England Biolabs). The tRNACUA^Tyr/Opt gene was amplified by PCR. The BstNI digested template DNA or PCR product was purified by phenol chloroform extraction, followed by ethanol precipitation and dissolved in double distilled water. A His-tagged T7 RNA polymerase was purified over a column of Ni-NTA resin according to manufacturer's instructions (Qiagen). The transcription reaction (40 mM Tris (pH 8); 4 mM each of UTP, CTP, GTP, and ATP at pH 7.0; 22 mM MgCl2; 2 mM spermidine; 10 mM DTT; 6 μg pyrophosphatase (Roche Applied Science); 60 m/mL of DNA template, approximately 0.2 mg/mL T7 RNA polymerase) was performed in 10 mL reactions overnight at 37° C. The tRNA was purified on 12% denaturing polyacrylamide gel containing 8 M urea and TBE buffer (90 mM Tris, 90 mM boric acid, 2 mM EDTA). UV shadowing was used to illuminate the pure tRNA band, which was excised and extracted three times with 1M sodium acetate pH 5.3 at 4° C. The tRNA extractions were then ethanol precipitated, dissolved in RNase-free distilled water, pooled, and finally desalted using a Biospin 30 column (BioRad). The tRNA was refolded by heating to 100° C. for 5 min and slow cooling to room temperature. At 65° C., MgCl2 was added to a final concentration of 10 mM to aid folding. A His-tagged CCA adding enzyme was purified over column of Ni-NTA resin according to manufacturer's instructions (Qiagen). 16 μM refolded tRNA in 50 mM Tris (pH 8.0), 20 mM MgCl2, 5 mM DTT, and 50 μM NaPPi was incubated at room temperature for 1 h with approximately 0.2 mg/mL CCA-adding enzyme and 1.6 μCi/μL of (α-^32P)-labeled ATP (PerkinElmer). The sample was phenol/chloroform extracted and then passed over a Bio-spin 30 column (Bio-Rad) to remove excess ATP.
(§3) A 20 μL aminoacylation reaction contained the following components for chPylRS variants: 50 mM HEPES-KOH (pH 7.2), 25 mM KCl, 10 mM MgCl2, 5 mM DTT, 10 mM ATP, 25 μg/mL pyrophosphatase (Roche Applied Science), 10 mM amino acids, 500 nM PylRS variants, 5 μM unlabeled tRNA^Pyl, and 100 nM ^32P-labeled tRNA^Pyl. A 20 μL aminoacylation reaction contained the following components for MjTyrRS variants: 50 mM Tris-HCl (pH 7.5), 1 mM DTT, 10 mM MgCl2, 10 mM ATP, 20 μM unlabeled tRNACUA^Tyr/Opt, 3 μM ^32P-labeled tRNACUA^Tyr/Opt, 2 μM MjTyrRS variants. […]

Another data set deals with tRNACUA^Tyr/Opt. Description: Aminoacylation assay of MjTyrRS variants (32P-labeled tRNA, nuclease P1/TLC). It is filed as biochemical. As to conditions: for Relative catalytic efficiency: relative to p-NFRS with p-NF. The protocol: as §1, §2, §3
The subject of data set [1] is sfGFP(Asn39TAG) expressed in BL21 star DE3 cells. Put plainly: ESI-MS analysis of purified sfGFP(Asn39TAG) for amino acid incorporated. It is filed as cell-based, E. coli. The protocol: Expression of His-tagged sfGFP was performed using the plasmids, cell strains, and antibiotic concentrations described in the methods for sfGFP assays. Saturated overnight cultures were prepared from single colonies of cotransformed cells, which were diluted 1,000-fold into 300 mL of LB media containing 1 mM ncAA where denoted and were grown while shaking at 230 rpm at 37° C. Once the cultures utilizing a pDB070 plasmid grew to a cell density of A600=0.3, AARS expression was induced by supplementing with anhydrotetracycline (ATc) to a final concentration of 200 ng/mL, and incubation was continued. […] Once cultures grew to a cell density of A600=0.5, sfGFP expression was induced by supplementation with a final concentration of 1 mM isopropyl-β-D-thiogalactosidase (IPTG) for cultures utilizing a pET28b(+) plasmid or a final concentration of 1 mM arabinose for cultures utilizing a pBAD plasmid. Incubation with shaking at 37° C. continued for an additional 16 h after induction of sfGFP expression. Cells were harvested by centrifugation at 5,000 g for 10 min at 4° C., and the resulting pellets were resuspended in B-PER II Bacterial Protein Extraction Reagent (Thermo Fisher Scientific) containing EDTA-free protease inhibitor cocktail (Roche). The soluble fraction of the cell lysates were diluted by an equal volume of equilibration buffer (20 mM Tris (pH 7.4), 10 mM imidazole, 300 mM NaCl) and were separately loaded onto a column containing 2 mL of HisPur Ni-NTA resin (Thermo Fisher Scientific) that had been pre-washed with two bed-volumes of equilibration buffer. […]
Purified protein samples were diluted to 10 μM in dialysis buffer lacking reducing agent or glycerol prior to analysis on an Agilent 6220 ESI-TOF mass spectrometer equipped with an Agilent 1260 HPLC. […] Data was analyzed using Agilent MassHunter Qualitative Analysis software (B.06.00, Build 6.0.633.0 with Bioconfirm). […]

Like-named read-outs stand apart in the source and are kept apart here.

B1: chPylRS: chimera of residues 1-149 of MbPylRS and residues 185-454 of MmPylRS; progenitor enzyme (SEQ ID NO: 5) (protein)
chain: MDKKPLDVLISATGLWMSRTGTLHKIKHYEVSRSKIYIEMACGDHLVVNNSRSCRTARAFRHHKYRKTCKRCRVSDEDINNFLTRSTEGKTSVKVKVVSAPKVKKAMPKSVSRAPKPLENPVSAKASTDTSRSVPSPAKSTPNSPVPTSASAPALTKSQTDRLEVLLNPKDEISLNSGKPFRELESELLSRRKKDLQQIYAEERENYLGKLEREITRFFVDRGFLEIKSPILIPLEYIERMGIDNDTELSKQIFRVDKNFCLRPMLAPNLYNYLRKLDRALPDPIKIFEIGPCYRKESDGKEHLEEFTMLNFCQMGSGCTRENLESIITDFLNHLGIDFKIVGDSCMVYGDTLDVMHGDLELSSAVVGPIPLDREWGIDKPWIGAGFGLERLLKVKHDFKNIKRAARSESYYNGISTNL
What is called Km is the concentration of substrate that gives half-maximal velocity. For B1, the kcat in the data set with tRNA^Pyl (BocK substrate, Table 7) turned out to be 11.88 ± 0.18 s^−1 × 10^−3; in the data set with tRNA^Pyl (L-pyrrolysine substrate, Table 8), 33.24 ± 2.74 s^−1 × 10^−3. The Km was found to be 2.54 ± 0.16 µM in the data set with tRNA^Pyl (BocK substrate, Table 7, read-out: KM^ATP); 0.26 ± 0.07 µM in the data set on tRNA^Pyl (BocK substrate, Table 7, read-out: KM^tRNA); 21.03 ± 0.15 µM in the data set with tRNA^Pyl (L-pyrrolysine substrate, Table 8, read-out: KM^Pyl); 1030 ± 50 µM in the data set with tRNA^Pyl (Table 7, read-out: KM^bocK). The molecule also yielded a Relative catalytic efficiency in the data set with tRNA^Pyl (kcat/KM^tRNA relative to chPylRS) of 1.

B2: p-NFRS: previously evolved MjTyrRS variant charging p-nitro-L-phenylalanine; SEQ ID NO: 18, 22 (protein)
chain: MDEFEMIKRNTSEIISEEELREVLKKDEKSALIGFEPSGKIHLGHYLQIKKMIDLQNAGFDIIILLADLHAYLNQKGELDEIRKIGDYNKKVFEAMGLKAKYVYGSSFQLDKDYTLNVYRLALKTTLKRARRSMELIAREDENPKVAEVIYPIMQVNPLNYEGVDVAVGGMEQRKIHMLARELLPKKVVCIHNPVLTGLDGEGKMSSSKGNFIAVDDSPEEIRAKIKKAYCPAGVVEGNPIMEIAKYFLEYPLTIKRPEKFGGDLTVNSYEELESLFKNKELHPMRLKNAVAEELIKILEPIRKRL
With B2, the kcat in the data set on tRNACUA^Tyr/Opt (amino acid Phe) is on record as 0.14 ± 0.003 s^−1 × 10^−3; with tRNACUA^Tyr/Opt (ncAA p-IF), 0.87 ± 0.11 s^−1 × 10^−3; in the data set with tRNACUA^Tyr/Opt (ncAA p-NF) it was 1.40 ± 0.05 s^−1 × 10^−3. In addition, the Km in the data set with tRNACUA^Tyr/Opt (amino acid Phe, read-out: KM^ncAA) is 160 ± 30 µM; with tRNACUA^Tyr/Opt (ncAA p-IF), 2230 ± 460 µM; in the data set on tRNACUA^Tyr/Opt (ncAA p-NF) it was 3680 ± 290 µM. The results for the Relative catalytic efficiency with tRNACUA^Tyr/Opt (amino acid Phe), in the data set on tRNACUA^Tyr/Opt (ncAA p-IF) and in the data set on tRNACUA^Tyr/Opt (ncAA p-NF) were 2.3, 1.03 and 1.00, respectively. Also, the “charging of p-IF” value in data set [1] (LB media, 1 mM p-IF) is on record as “efficiently charges p-iodo-L-phenylalanine (p-IF)”. In addition, in data set [1] (overnight expression in LB media, presence or absence of 1 mM p-NF), the “charging of Phe” value was “efficiently charges Phe”.

B3: p-IFRS: previously reported MjTyrRS variant evolved to charge p-IF; His160; SEQ ID NO: 19, 23 (protein)
chain: MDEFEMIKRNTSEIISEEELREVLKKDEKSALIGFEPSGKIHLGHYLQIKKMIDLQNAGFDIIILLADLHAYLNQKGELDEIRKIGDYNKKVFEAMGLKAKYVYGSSFQLDKDYTLNVYRLALKTTLKRARRSMELIAREDENPKVAEVIYPIMQVNPLHYEGVDVAVGGMEQRKIHMLARELLPKKVVCIHNPVLTGLDGEGKMSSSKGNFIAVDDSPEEIRAKIKKAYCPAGVVEGNPIMEIAKYFLEYPLTIKRPEKFGGDLTVNSYEELESLFKNKELHPMRLKNAVAEELIKILEPIRKRL
For the molecule B3, the “selectivity of incorporation into sfGFP” value in data set [1] (LB media supplemented with both 1 mM p-NF and 1 mM p-IF) was “selectively incorporates p-IF”.

The values are drawn from US11447809B2, “Evolution of tRNA synthetases” (President and Fellows of Harvard College, priority 2017, dated 2022).
